{"source": "patent US20140287419A1", "about": "“Compositions Having Dicamba Decarboxylase Activity and Methods of Use” (priority 2013, published 2014)", "molecules": {"B1": {"name": "84 (protein, listed as Mycobacterium rhodesiae)", "chain": "MASLIALEEHYAWDPASEGNVVATWLRANNGVAYDRLYDRGPLRIEQMDAAGIDFQILSLFDPGVQDEVDAVRAVDLARRANDDLAESVRANPSRFGGFATLATQQPDAAVAEFDRAVTELGLVGGLINGHCQGRYLDDPAYEALFSRAEALGAPIYLHPTTPHPAVMDAWFAPYVGDGLHLASWGFAAETGTHVLRLIYSGLFDKFPRLQMIIGHLGEMLPFAAYRIDRYYGLGGGGTGHTLQHLPSDYLRNNFHVTTSGNFCSPALDCTLDVMGADRVMFSVDYPMDDNQTGADFLASYPMDDTNRRKVASENALRLFGDRIPAALRN"}, "B2": {"name": "86 (protein, listed as Sphingopyxis alaskensis)", "chain": "MALGASVASREASAQMAKAPMRKIATEEAFATPELAKAWLEIARSEPNSSLDIPTGILSIFDNPRPGSNQDRFRRQLLDVDAERIRDMDEAGVDMQLLSVTIPGVQIFEPARAGELAVTTNDHLAAAIARRPTRFAGLACFAPHDPVQATREMERAVNALGLKGFIVNSHTQDLYLDDPRFAPVLEAAQSLDCPIYLHPRAPSNGMAAPFRDYSMGGSIWGFGVEAGTHAVRMILSGVFDRYPRLRIVLGHMGEALPFWMWRLDHMAARRAKDGRMKPLSLAPSEYFKRNFAVTTSGFESPDVLDLVIKVAGIENIMWAIDYPYESSRDAVTFIEGADLTASQRASIFHRNAVRHFRLS"}, "B3": {"name": "88 (protein, listed as Starkeya novella)", "chain": "MARKIALEEHFTTPELAGKYVARPTQSDALFADIERRLADFDELRLEMMDRAEIDLMVLSVTTPGVQGVRDTGEAIRLARGANDFLAREVQKRPSRYAGFAHLAMQDAEAAATELERAVRELGFRGALINGQTNGHYLDEDQYAPFWERVQELDVPVYLHPGNMADSPAMFAHRPELGGPIWAWTAETAAHALRLVFGGTFTRFPGAKVILGHMGETLPFLLWRLDSRREFDLGEKLAPDALPSAIIKRNIAVTTSGVCDPAPLVAALQALSDDNVMFSVDYPYEDPQLASKFIETAPIGEETRAKVCHGNAERLLGL"}, "B4": {"name": "87 (protein, listed as Novosphingobium sp.)", "chain": "MASDIATAADLQTGGRQGYLRIATEEAFATRDQIDVYLRMVRDGTADRGMTSLWGFYAQSPSARATQIIERLLDLGEQRLADMDAAGIDKAVLALTSPGVQPLLDMEEARRIAGNANDRLAERCAAHPDRFIGMTAVAPQDPQWSAREILRGATQLGFKGVQINSHTQGRYLDEPFFDPIFRALGDVGQPLYIHPGTPPDSMIGPLLDAGLDGAIYGFGVETGMHLLRLITAGIFDRYPDLQIMVGHMGEALPYWLYRLDYMHQAGIRSQRYERMRPLKRTIAGYFRSNVLVTCSGMAWEPAIQFARQVMGEDRVMYAMDYPYQYEADEVRALDVMDLSPESKRKFFQTNAERWFDL"}, "B5": {"name": "6 (protein)", "chain": "MAEILSPEESIYYSKLSNDILAEGIKKNPTRFRGFAALPTPDPIQAAMELERCIKLGGFVGAIINGHINGHYLDEIQFDPILEAADALDVPLYIHPAVPPKAIIDTYYKMNDTYAQTVMVSGGWGWHIETGVHVLRLISSGVFDRHPNLKIVIGHLGEGLPFFMHRLNNAIGGNLKKSYSTYLKENIYYTISGFNDPDLFQFVLKKVGENNIMFSSDYPFNFPKREVELFNELNISEEVREKISFKNAERILKI", "modifications": "Treponema brennaborense"}, "B6": {"name": "79 (protein)", "chain": "MATTTTPSTLIATLESHLTPTLAFTSPTTSPTQPALHLIPPTTLTKLRNLGPGRVKDMHMLGHSRQIISHIPVAAPPQICSRFNDAIHAATMTNTAKFSVLAVLPTDGMEAAKELARCVSKYRFVGGVIGLNRGLRINGEGWEELWGLAERLRIPIMFREMWPLAFEIVDYQHHLPYSALGPILTQLHTSHTSSPLPLVRLYLSSVFDHYPSLRLVLAHPGSLPSLVPRIESLINSIPATDKPKRSFLDVWQHNIYLTTADAQDMSSLRALLEQIPVDRVLYASNYPFEERGNELMNELRESEFLTNIEWERVAWVNAETLFNLKEAGTKEARQLTTIPSSRS", "modifications": "Pyrenophora teres"}, "B7": {"name": "83 (protein, listed as Mycobacterium rhodesiae)", "chain": "MALIALEEHYAWSPVSAGNVVGSWLETHNVTAYQRLYDRGPLRLEQMDAAGIDFQILSLFDPGVQDDDDTARAVENARRANDDLAETVRAAPDRFGGFATLAPQDPDAAAAELERAVGELGLVGGLINGHTHGRYLDDPAYLGLFECAQRLGVPIYLHPTTPHPAVMDAWFAPYVKDGLHLASWGFAAETGTHALRLIYSGLFDTFPRLQMILGHLGEMLPYAAYRIDRYYGLGGGDDGGRLARLPSEYLRDNFHVTTSGNFNPVAFACALDVMGPDRLMFSVDYPMDDNVTGAEFLRNLEVDDDVRRKVAGENALQLFGDKIPRR"}, "B8": {"name": "82 (protein, listed as Rhodopseudomonas palustris)", "chain": "MAQNETPVIAIEEHYWDPEMVARFPAGENASPFSTLLTELGDVRLRAMDEAGIDVQVLSHGAPAAQKLPPDVAPELTRRVNDRLAEACARFPNRFAAFAALPTPAPEAAARELERCVRDLGFKGAMIHGLTNGLFIDDKRFWPIFEVAEKLDVPIYLHPSVPHADVTRYYYDDYAREFPTVIRPAWGFTVETATQAIRLILSRALESYPRLQIILGHLGETLPFLLWRINQALARPGQTPLDFRKQFCDHFHVTTSGFFSTPALICTMLELGIDRIMFAVDYPYVVNRDGTDWVQQLQISPDDKRKLVGGNARRLLKL"}, "B9": {"name": "77 (protein)", "chain": "MALIDLHAHAPHPGYYNQHPHWGPFFERHEDGDVKLRVGDWILTLGSPERKALVRAGKGPTVEEYQARWADPKVRLAGMDAAGQNAQVVSVPSHCYMYWAEKEFSVPFATKVNDTFAEYCSAAPDRLMFWAHAALNAPEQAALELRRACTELGAKGLVAGGANFGGLEFDSPELDPVWKVLCDLDLPMFIHGYNQSVTWGKKANDDRYETTAIVGMQYDETRCFWNLVCGGVLDRFPGLKVYITHGGGYVPYQLGRLAQCNGNLDVAHNKKPVLEYLKNNFYFDVELHEVPMRQALIDIIGADRVLYGSNFGGSDAVRHDLTEGLRLSDDDLQKIRWKNACKLLHLDPAKIGEPAKKQAVSA", "modifications": "Burkholderia xenovorans"}, "B10": {"name": "85 (protein, listed as Maritimibacter alkaliphilus)", "chain": "MAADRKPGLVSVEEGFMIPEVVAELSRIAGGVPSMKSGPIAGPFMDDLLDIGKGRVARMDADGVAVQILALAAPGVQKFDPDTALALSRLTNDRLAEAIAAHPARFGGLAAAPPQAAREGAKELDRAITTLGLNGLIVNSHTNDLYLDDPSFWPLLEAAEALDVPVYLHPREPAAGIEGGLMAMTGFTVGWAYAVETGTHLLRMIAAGVFDRFPRLRIVLGHLGEMIPFMLDRIDNRYPFEMGVTGAKPLPRKPSDYFRDHVTVATSGMNFNAPMRAAIEVLGADKVMFAADYPMERQDEEVAKFAALDLTPDERKRIGEDNARRVFGL"}, "B11": {"name": "81 (protein, listed as Verticillium dahliae)", "chain": "MAASTKPKVVDIHTHMYPPSYIDILTSRTAIPVVRTFPQAADPRLILLDAEQQALDAALQDPTAKPPGRPLTSHYASLDQKIHFMDTHSIDISVVSLANPWLDFIEPKEAAATARSVNDEFEAMCASQPGRLFFFAALPLTAPLPALLEAVRHVAELEHCRGVILGTSGLGSGLDDPELVPVLEAVAAAALTVFLHPHYGLPNDVWGPRASAEYGHVLPLALGFPMETTIAVARMYLAGVFDRVPALRMLLAHSGGTLPFLAGRIESCILHDGQLVAEGKVGAARRTIWDVLREQVYLDAVIYSEIGLKAAIAASGGADRLMFGTDHPFFPPLGTDEQAKKESRINAGGSRPMITGNAMINGHGGLCNHITQSDYQDVVL"}, "B12": {"name": "78 (protein, listed as Marinobacter adhaerens)", "chain": "MALIDLHAHAPHPDYYDQHPHWGPAFELQSDGDIKLRVGHWVLSLGAPERKQALREAHARGETLDVQEYMAKWRDPEHRLASMDAAGQNAQVLSVPSHCYMYWAEPEFGVPFAKKVNDSLAEYCSAAPDRLMFWAHAPLNVPKEAAKEIRRACTELGAKGLVAGGSNFGGLEFDSPEMDPVWEALCDLDLPMFVHGYNQSVTWGEEANTDRYETTAIVGMNYDESKCFWYMINGGVFDRFPNLKVYITHGGGFVPYQLGRMAQTNPNLDTYHNKKPFLEYLKNFYFDVELHEVPMRQAMVEVIGADRVLYGSNFGGSDAVRHDLTDDLKLSQEDLDKIRWKNACDLLHLDPNKLGKVRG"}, "B13": {"name": "80 (protein, listed as Cordyceps militaris)", "chain": "MAAASTPVVVDIHTHMYPPSYIAMLEKRQTIPLVRTFPQADEPRLILLSSELAALDAALADPAAKLPGRPLSTHFASLAQKMHFMDTNGIRVSVISLANPWFDFLAPDEAPGIADAVNAEFSDMCAQHVGRLFFFAALPLSAPVDAVKASIERVKNLKYCRGIILGTSGLGKGLDDPHLLPVFEAVADAKLLVFLHPHYGLPNEVYGPRSEEYGHVLPLALGFPMETTIAVARMYMAGVFDHVRNLQMLLAHSGGTLPFLAGRIESCIVHDGHLVKTGKVPKDRRTIWTVLKEQIYLDAVIYSEVGLQAAIASSGADRLMFGTDHPFFPPIEEDVQGPWDSSRLNAQAVIKAVGEGSSDAAAVMGLNAVRVLSLKAE"}, "B14": {"name": "89 (protein, listed as Erwinia billingiae)", "chain": "MATNRRDFLKNATAVMAGSTVFAGSSHFASAAAVEPAAVQPPRRIIALEEHFMLPEFVGYLHETQQNLRNGLVDKVVTPLSDFGKGRLEIMDKNGVDFAVLSLSGPGVQAEPDRVKAVRLARYANDKLATEMQKNPRRYGGFAHLAMQDPLAAANELERCVKQLHMQGGMINGETDGLYLDDRRYDVFWERVEALNVPIYIHPGNPPDYPHMFAGHPEMWGPVWSWAVETCSHALRLIFSGTFDRYPGARVILGHMGETLPIQLWRLDSRYQIANQTFAIKHPPSWYAKKNITITTSGVCNDAALRCALDSMGSENVMFSIDYPFESTEIAVNWLKTANITEQERNAVAWGNATSILRLGA"}}}
{"test": "14C assay with IPTG-induced recombinant E. coli cells (14CO2 capture from [14C]-carboxyl-labeled dicamba)", "details": "IPTG-induced recombinant E. coli cells; [14C]-carboxyl-labeled dicamba; 14CO2 capture"}
{"molecule": "B1", "Dicamba Decarboxylase Activity": "Low"}
{"molecule": "B2", "Dicamba Decarboxylase Activity": "Low"}
{"molecule": "B3", "Dicamba Decarboxylase Activity": "High"}
{"molecule": "B4", "Dicamba Decarboxylase Activity": "High"}
{"molecule": "B5", "Dicamba Decarboxylase Activity": "No"}
{"molecule": "B6", "Dicamba Decarboxylase Activity": "High"}
{"molecule": "B7", "Dicamba Decarboxylase Activity": "Low"}
{"molecule": "B8", "Dicamba Decarboxylase Activity": "Low"}
{"molecule": "B9", "Dicamba Decarboxylase Activity": "No"}
{"molecule": "B10", "Dicamba Decarboxylase Activity": "Low"}
{"molecule": "B11", "Dicamba Decarboxylase Activity": "High"}
{"molecule": "B12", "Dicamba Decarboxylase Activity": "Low"}
{"molecule": "B13", "Dicamba Decarboxylase Activity": "Low"}
{"molecule": "B14", "Dicamba Decarboxylase Activity": "High"}
{"test": "14C assay with IPTG-induced recombinant E. coli cells (14CO2 capture from [14C]-carboxyl-labeled dicamba)", "details": "dicamba decarboxylation activity of the protein of the given SEQ ID NO"}
{"molecule": "B1", "Enzymatic Detection level": "Low"}
{"molecule": "B2", "Enzymatic Detection level": "Low"}
{"molecule": "B3", "Enzymatic Detection level": "High"}
{"molecule": "B4", "Enzymatic Detection level": "High"}
{"molecule": "B5", "Enzymatic Detection level": "No"}
{"molecule": "B6", "Enzymatic Detection level": "High"}
{"molecule": "B7", "Enzymatic Detection level": "Low"}
{"molecule": "B8", "Enzymatic Detection level": "Low"}
{"molecule": "B9", "Enzymatic Detection level": "No"}
{"molecule": "B10", "Enzymatic Detection level": "Low"}
{"molecule": "B11", "Enzymatic Detection level": "High"}
{"molecule": "B12", "Enzymatic Detection level": "Low"}
{"molecule": "B13", "Enzymatic Detection level": "Low"}
{"molecule": "B14", "Enzymatic Detection level": "High"}
